Columns and labels:
[1] = molecular target: T1, cMET extracellular domain (human, UniProt P08581 25-932); assay: Octet BLI, protein A biosensors, extracellular domain as antigen
T1 construct: extracellular domain; also called human c-MET
Method: (§1) The affinity of BxM wildtype and MaB40 was analysed using an Octet system with biosensors coated with protein A. As antigens, the extracellular domains of cMET and EGFR were used. Three different concentrations of antibody were tested to determine the affinity.

[2] = molecular target: T2, EGFR extracellular domain (human, UniProt P00533 25-645); assay: as above
T2 construct: extracellular domain; also called human EGFR; epidermal growth factor receptor
Method: as §1

Binder | Kd [1] [nM] | Kd [2] [nM]
BxM wt (B10v5 x hu225M SEED bispecific IgG without interface mutations) (bispecific antibody, By LC-ESI-MS the preparation held only 76% of the correctly paired form (12% + 12% light chain mispaired variants); also called BxM wildtype) heavy 1: not shown light 1: EPVLTQPPSVSVAPGETATIPCGGDSLGSKIVHWYQQRPGQAPLLVVYDDAARPSGIPERFSGSKSGTTATLTISSVEAGDEADYFCQVYDYHSDVEVFGGGTKLTVLGQPKAAPSVTLFPPSSEELQANKATLVCLISDFYPGAVTVAWKADSSPVKAGVETTTPSKQSNNKYAASSYLSLTPEQWKSHKSYSCQVTHEGSTVEKTVAPTECS heavy 2: EVQLVQSGAEVKKPGASVKVSCKASGFSLTNYGVHWMRQAPGQGLEWIGVIWSGGNTDYNTPFTSRVTITSDKSTSTAYMELSSLRSEDTAVYYCARALTYYDYEFAYWGQGTLVTVSSASTKGPSVFPLAPSSKSTSGGTAALGCLVKDYFPEPVTVSWNSGALTSGVHTFPAVLQSSGLYSLSSVVTVPSSSLGTQTYICNVNHKPSNTKVDKKVEPKSCDKTHTCPPCPAPELLGGPSVFLFPPKPKDTLMISRTPEVTCVVVDVSHEDPEVKFNWYVDGVEVHNAKTKPREEQYNSTYRVVSVLTVLHQDWLNGKEYKCKVSNKALPAPIEKTISKAKGQPREPQVYTLPPPSEELALNELVTLTCLVKGFYPSDIAVEWLQGSQELPREKYLTWAPVLDSDGSFFLYSILRVAAEDWKKGDTFSCSVMHEALHNHYTQKSLDRSPGK light 2: DIQMTQSPSSLSASVGDRVTITCRASQSIGTNIHWYQQKPGKAPKLLIKYASESISGVPSRFSGSGYGTDFTLTISSLQPEDVATYYCQQNYNWPTTFGQGTKVEIKRTVAAPSVFIFPPSDEQLKSGTASVVCLLNNFYPREAKVQWKVDNALQSGNSQESVTEQDSKDSTYSLSSTLTLSKADYEKHKVYACEVTHQGLSSPVTKSFNRGEC | 0.35 | 5.3
BxM MaB40 (B10v5 x hu225M SEED bispecific IgG with K26D in CH1 and T18R in CL of hu225M) (bispecific antibody, Only the correctly paired form was detected by LC-ESI-MS; also called mutant BxM MaB40) heavy 1: not shown light 1: EPVLTQPPSVSVAPGETATIPCGGDSLGSKIVHWYQQRPGQAPLLVVYDDAARPSGIPERFSGSKSGTTATLTISSVEAGDEADYFCQVYDYHSDVEVFGGGTKLTVLGQPKAAPSVTLFPPSSEELQANKATLVCLISDFYPGAVTVAWKADSSPVKAGVETTTPSKQSNNKYAASSYLSLTPEQWKSHKSYSCQVTHEGSTVEKTVAPTECS heavy 2: EVQLVQSGAEVKKPGASVKVSCKASGFSLTNYGVHWMRQAPGQGLEWIGVIWSGGNTDYNTPFTSRVTITSDKSTSTAYMELSSLRSEDTAVYYCARALTYYDYEFAYWGQGTLVTVSSASTKGPSVFPLAPSSKSTSGGTAALGCLVDDYFPEPVTVSWNSGALTSGVHTFPAVLQSSGLYSLSSVVTVPSSSLGTQTYICNVNHKPSNTKVDKKVEPKSCDKTHTCPPCPAPELLGGPSVFLFPPKPKDTLMISRTPEVTCVVVDVSHEDPEVKFNWYVDGVEVHNAKTKPREEQYNSTYRVVSVLTVLHQDWLNGKEYKCKVSNKALPAPIEKTISKAKGQPREPQVYTLPPPSEELALNELVTLTCLVKGFYPSDIAVEWLQGSQELPREKYLTWAPVLDSDGSFFLYSILRVAAEDWKKGDTFSCSVMHEALHNHYTQKSLDRSPGK light 2: DIQMTQSPSSLSASVGDRVTITCRASQSIGTNIHWYQQKPGKAPKLLIKYASESISGVPSRFSGSGYGTDFTLTISSLQPEDVATYYCQQNYNWPTTFGQGTKVEIKRTVAAPSVFIFPPSDEQLKSGRASVVCLLNNFYPREAKVQWKVDNALQSGNSQESVTEQDSKDSTYSLSSTLTLSKADYEKHKVYACEVTHQGLSSPVTKSFNRGEC | 0.42 | 2.9
